Assay results taken from paper doi:10.1101/2020.04.03.023861 (bioRxiv, 2020).

Molecular target: the molecule itself
Experiment: detergent-resistant band of doubled size on SDS-PAGE and western blot

B1: TMEM70-FLAG (natural protein, human, UniProt Q9BUB7 82-260, looked up)
chain: LNTPSDKSEDGRLIYTGNMARAVFGVKCFSYSTSLIGLTFLPYIFTQNNAISESVPLPIQIIFYGIMGSFTVITPVLLHFITKGYVIRLYHEATTDTYKAITYNAMLAETSTVFHQNDVKIPDAKHVFTTFYAKTKSLLVNPVLFPNREDYIHLMGYDKEEFILYMEETSEEKRHKDDK
stoichiometry N: 2
